Measurements reported in PMC4191393, “Selective microRNA uridylation by Zcchc6 (TUT7) and Zcchc11 (TUT4)”.

Biological target: T1, r.Zcchc11 (TUT4) (Homo sapiens, UniProt Q5TAX3 225-1384)
T1 sequence: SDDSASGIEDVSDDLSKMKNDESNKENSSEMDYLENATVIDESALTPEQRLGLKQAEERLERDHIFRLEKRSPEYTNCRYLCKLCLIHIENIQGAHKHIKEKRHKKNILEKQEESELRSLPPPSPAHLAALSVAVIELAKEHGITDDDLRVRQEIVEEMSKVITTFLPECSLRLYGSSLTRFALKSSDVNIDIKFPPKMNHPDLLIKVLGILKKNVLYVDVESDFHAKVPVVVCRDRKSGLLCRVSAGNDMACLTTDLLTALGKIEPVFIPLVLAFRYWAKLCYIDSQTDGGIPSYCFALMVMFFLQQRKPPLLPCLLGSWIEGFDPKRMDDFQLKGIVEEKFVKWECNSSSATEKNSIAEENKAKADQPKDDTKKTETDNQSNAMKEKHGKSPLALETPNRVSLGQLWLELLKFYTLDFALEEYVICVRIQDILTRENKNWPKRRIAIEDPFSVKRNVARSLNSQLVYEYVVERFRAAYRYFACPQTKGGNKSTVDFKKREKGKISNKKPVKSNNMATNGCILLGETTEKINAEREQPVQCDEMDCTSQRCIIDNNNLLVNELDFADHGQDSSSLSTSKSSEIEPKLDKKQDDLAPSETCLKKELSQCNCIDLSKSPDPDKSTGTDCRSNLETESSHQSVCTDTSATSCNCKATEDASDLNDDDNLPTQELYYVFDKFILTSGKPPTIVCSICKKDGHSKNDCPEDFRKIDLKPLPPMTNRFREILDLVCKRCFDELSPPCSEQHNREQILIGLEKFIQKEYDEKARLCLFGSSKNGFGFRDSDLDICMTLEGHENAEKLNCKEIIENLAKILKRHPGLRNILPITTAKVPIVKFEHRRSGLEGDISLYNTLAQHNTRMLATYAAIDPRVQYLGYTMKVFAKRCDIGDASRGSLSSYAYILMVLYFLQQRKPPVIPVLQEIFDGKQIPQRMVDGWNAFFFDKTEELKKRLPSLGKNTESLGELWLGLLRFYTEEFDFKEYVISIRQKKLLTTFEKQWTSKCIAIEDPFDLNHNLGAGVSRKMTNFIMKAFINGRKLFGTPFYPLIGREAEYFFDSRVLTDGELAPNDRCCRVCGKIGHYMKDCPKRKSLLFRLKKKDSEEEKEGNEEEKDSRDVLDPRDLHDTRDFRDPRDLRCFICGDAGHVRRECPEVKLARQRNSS
Assay: EMSA; 2 mM Mg2+; RNA 2.5 nM; EMSA: 500 mM NaCl, 20 mM HEPES pH 7.5, 2 mM MgCl2, 5% glycerol, 1 mM TCEP; 10 ul, 3-50 ng protein, 2.5 nM RNA; native 12% PAGE in 0.5x TBE; temperature not stated
Conditions: protein: recombinant; tags: N-terminal His6-Trx, removed with TEV; label: 5'-32P; single strand

UGAGGUAGUAGUUUGUACAGUU (ssRNA) [let-7g guide]
binding result: binds
